Measurements reported in patent US20230002480A1.

Tests used:
Assay in all cases: cell-based or functional assay
[1] = target: HIV-1 Env of pseudovirus 1006_11_C3_1601 (HIV-1)
[2] = target: HIV-1 Env of pseudovirus 1394C9G1(Rev-) (HIV-1)
[3] = target: HIV-1 Env of pseudovirus 263-8 (HIV-1)
[4] = target: HIV-1 Env of pseudovirus 6244_13_B5_4576 (HIV-1)
[5] = target: HIV-1 Env of pseudovirus 9004SS_A3_4 (HIV-1)
[6] = target: HIV-1 Env of pseudovirus 928-28 (HIV-1)
[7] = target: HIV-1 Env of pseudovirus BF1266.431a (HIV-1)
[8] = target: HIV-1 Env of pseudovirus CNE20 (HIV-1)
[9] = target: HIV-1 Env of pseudovirus CNE30 (HIV-1)
[10] = target: HIV-1 Env of pseudovirus Ce2060_G9 (HIV-1)
[11] = target: HIV-1 Env of pseudovirus Du422.1 (HIV-1)
[12] = target: HIV-1 Env of pseudovirus MS208.A1 (HIV-1)
[13] = target: HIV-1 Env of pseudovirus PVO.4 (HIV-1)
[14] = target: HIV-1 Env of pseudovirus Q769.d22 (HIV-1)
[15] = target: HIV-1 Env of pseudovirus QH0692.42 (HIV-1)
[16] = target: HIV-1 Env of pseudovirus SC05_8C11_2344 (HIV-1)
[17] = target: HIV-1 Env of pseudovirus T257-31 (HIV-1)
[18] = target: HIV-1 Env of pseudovirus TRJO4551.58 (HIV-1)
[19] = target: HIV-1 Env of pseudovirus WITO4160.33 (HIV-1)
[20] = target: HIV-1 Env of pseudovirus ZM135M.PL10a (HIV-1)
[21] = target: HIV-1 Env of pseudovirus ZM197M.PB7 (HIV-1)
[22] = target: HIV-1 Env of pseudovirus ZM214M.PL15 (HIV-1)
[23] = target: HIV-1 Env of pseudovirus ZM249M.PL1 (HIV-1)
[24] = target: HIV-1 Env of pseudovirus BJOX010000.06.2 (HIV-1)
[25] = target: HIV-1 Env of pseudovirus BJOX015000.11.5 (HIV-1)
[26] = target: HIV-1 Env of pseudovirus C4118.c09 (HIV-1)
[27] = target: HIV-1 Env of pseudovirus P0402_c2_11 (HIV-1)
[28] = target: HIV-1 Env of pseudovirus R1166.c01 (HIV-1)
[29] = target: HIV-1 Env of pseudovirus T278-50 (HIV-1)

Substance: 10-1074 (antibody)
- IC50, titer in TZM.bl cells [1]: 0.003 µg/mL
- IC80, titer in TZM.bl cells [1]: 0.013 µg/mL
- IC50, titer in TZM.bl cells [2]: 0.05 µg/mL
- IC80, titer in TZM.bl cells [2]: 0.191 µg/mL
- IC50, titer in TZM.bl cells [3]: 0.666 µg/mL
- IC80, titer in TZM.bl cells [3]: 6.53 µg/mL
- IC50, titer in TZM.bl cells [4]: 0.202 µg/mL
- IC80, titer in TZM.bl cells [4]: 0.922 µg/mL
- IC50, titer in TZM.bl cells [5]: 0.011 µg/mL
- IC80, titer in TZM.bl cells [5]: 0.03 µg/mL
- IC50, titer in TZM.bl cells [6]: 0.847 µg/mL
- IC80, titer in TZM.bl cells [6]: 4.7 µg/mL
- IC50, titer in TZM.bl cells [7]: > 50 µg/mL
- IC80, titer in TZM.bl cells [7]: > 50 µg/mL
- IC50, titer in TZM.bl cells [8]: < 0.001 µg/mL
- IC80, titer in TZM.bl cells [8]: 0.005 µg/mL
- IC50, titer in TZM.bl cells [9]: 0.363 µg/mL
- IC80, titer in TZM.bl cells [9]: 1.2 µg/mL
- IC50, titer in TZM.bl cells [10]: > 50 µg/mL
- IC80, titer in TZM.bl cells [10]: > 50 µg/mL
- IC50, titer in TZM.bl cells [11]: 0.045 µg/mL
- IC80, titer in TZM.bl cells [11]: 0.166 µg/mL
- IC50, titer in TZM.bl cells [12]: > 50 µg/mL
- IC80, titer in TZM.bl cells [12]: > 50 µg/mL
- IC50, titer in TZM.bl cells [13]: 0.074 µg/mL
- IC80, titer in TZM.bl cells [13]: 0.36 µg/mL
- IC50, titer in TZM.bl cells [14]: > 50 µg/mL
- IC80, titer in TZM.bl cells [14]: > 50 µg/mL
- IC50, titer in TZM.bl cells [15]: 0.191 µg/mL
- IC80, titer in TZM.bl cells [15]: 0.929 µg/mL
- IC50, titer in TZM.bl cells [16]: 0.052 µg/mL
- IC80, titer in TZM.bl cells [16]: 0.123 µg/mL
- IC50, titer in TZM.bl cells [17]: > 50 µg/mL
- IC80, titer in TZM.bl cells [17]: > 50 µg/mL
- IC50, titer in TZM.bl cells [18]: 0.17 µg/mL
- IC80, titer in TZM.bl cells [18]: 0.634 µg/mL
- IC50, titer in TZM.bl cells [19]: 0.185 µg/mL
- IC80, titer in TZM.bl cells [19]: 2.11 µg/mL
- IC50, titer in TZM.bl cells [20]: 0.069 µg/mL
- IC80, titer in TZM.bl cells [20]: 0.367 µg/mL
- IC50, titer in TZM.bl cells [21]: > 50 µg/mL
- IC80, titer in TZM.bl cells [21]: > 50 µg/mL
- IC50, titer in TZM.bl cells [22]: 0.174 µg/mL
- IC80, titer in TZM.bl cells [22]: 2.37 µg/mL
- IC50, titer in TZM.bl cells [23]: > 50 µg/mL
- IC80, titer in TZM.bl cells [23]: > 50 µg/mL

Substance: PG9 (antibody)
- IC50, titer in TZM.bl cells [1]: 0.366 µg/mL
- IC80, titer in TZM.bl cells [1]: 1.91 µg/mL
- IC50, titer in TZM.bl cells [2]: 0.029 µg/mL
- IC80, titer in TZM.bl cells [2]: 0.114 µg/mL
- IC50, titer in TZM.bl cells [3]: 0.293 µg/mL
- IC80, titer in TZM.bl cells [3]: 1.05 µg/mL
- IC50, titer in TZM.bl cells [4]: > 50 µg/mL
- IC80, titer in TZM.bl cells [4]: > 50 µg/mL
- IC50, titer in TZM.bl cells [5]: 0.088 µg/mL
- IC80, titer in TZM.bl cells [5]: 0.251 µg/mL
- IC50, titer in TZM.bl cells [6]: 0.101 µg/mL
- IC80, titer in TZM.bl cells [6]: 0.45 µg/mL
- IC50, titer in TZM.bl cells [7]: 0.026 µg/mL
- IC80, titer in TZM.bl cells [7]: 0.088 µg/mL
- IC50, titer in TZM.bl cells [8]: 0.052 µg/mL
- IC80, titer in TZM.bl cells [8]: 0.278 µg/mL
- IC50, titer in TZM.bl cells [9]: > 50 µg/mL
- IC80, titer in TZM.bl cells [9]: > 50 µg/mL
- IC50, titer in TZM.bl cells [10]: 0.045 µg/mL
- IC80, titer in TZM.bl cells [10]: 0.172 µg/mL
- IC50, titer in TZM.bl cells [11]: 0.614 µg/mL
- IC80, titer in TZM.bl cells [11]: 10.4 µg/mL
- IC50, titer in TZM.bl cells [12]: 0.005 µg/mL
- IC80, titer in TZM.bl cells [12]: 0.014 µg/mL
- IC50, titer in TZM.bl cells [13]: 10.6 µg/mL
- IC80, titer in TZM.bl cells [13]: > 50 µg/mL
- IC50, titer in TZM.bl cells [14]: 0.025 µg/mL
- IC80, titer in TZM.bl cells [14]: 0.068 µg/mL
- IC50, titer in TZM.bl cells [15]: > 50 µg/mL
- IC80, titer in TZM.bl cells [15]: > 50 µg/mL
- IC50, titer in TZM.bl cells [16]: 0.892 µg/mL
- IC80, titer in TZM.bl cells [16]: 4.28 µg/mL
- IC50, titer in TZM.bl cells [17]: 0.037 µg/mL
- IC80, titer in TZM.bl cells [17]: 0.124 µg/mL
- IC50, titer in TZM.bl cells [18]: 0.503 µg/mL
- IC80, titer in TZM.bl cells [18]: 4.06 µg/mL
- IC50, titer in TZM.bl cells [19]: 0.01 µg/mL
- IC80, titer in TZM.bl cells [19]: 0.037 µg/mL
- IC50, titer in TZM.bl cells [20]: 20.6 µg/mL
- IC80, titer in TZM.bl cells [20]: > 50 µg/mL
- IC50, titer in TZM.bl cells [21]: 0.899 µg/mL
- IC80, titer in TZM.bl cells [21]: 4.52 µg/mL
- IC50, titer in TZM.bl cells [22]: > 50 µg/mL
- IC80, titer in TZM.bl cells [22]: > 50 µg/mL
- IC50, titer in TZM.bl cells [23]: 0.166 µg/mL
- IC80, titer in TZM.bl cells [23]: 1.41 µg/mL

Substance: N49P7 (antibody)
- neutralization IC50 [1]: 0.044 µg/mL
- neutralization IC80 [1]: 0.158 µg/mL
- neutralization MPI [1]: 100
- neutralization IC50 [2]: 3.84 µg/mL
- neutralization IC80 [2]: 21.1 µg/mL
- neutralization MPI [2]: 94
- neutralization IC50 [3]: 0.056 µg/mL
- neutralization IC80 [3]: 0.201 µg/mL
- neutralization MPI [3]: 100
- neutralization IC50 [4]: 0.111 µg/mL
- neutralization IC80 [4]: 0.386 µg/mL
- neutralization MPI [4]: 100
- neutralization IC50 [5]: 0.125 µg/mL
- neutralization IC80 [5]: 0.39 µg/mL
- neutralization MPI [5]: 100
- neutralization IC50 [6]: 0.167 µg/mL
- neutralization IC80 [6]: 0.579 µg/mL
- neutralization MPI [6]: 100
- neutralization IC50 [7]: 0.057 µg/mL
- neutralization IC80 [7]: 0.199 µg/mL
- neutralization MPI [7]: 100
- neutralization IC50 [24]: 0.085 µg/mL
- neutralization IC80 [24]: 0.592 µg/mL
- neutralization MPI [24]: 100
- neutralization IC50 [25]: 0.036 µg/mL
- neutralization IC80 [25]: 0.157 µg/mL
- neutralization MPI [25]: 100
- neutralization IC50 [26]: 0.043 µg/mL
- neutralization IC80 [26]: 0.147 µg/mL
- neutralization MPI [26]: 100
- neutralization IC50 [8]: 0.028 µg/mL
- neutralization IC80 [8]: 0.1 µg/mL
- neutralization MPI [8]: 100
- neutralization IC50 [9]: 0.18 µg/mL
- neutralization IC80 [9]: 0.609 µg/mL
- neutralization MPI [9]: 100
- neutralization IC50 [10]: 0.661 µg/mL
- neutralization IC80 [10]: 2.55 µg/mL
- neutralization MPI [10]: 100
- neutralization IC50 [11]: 4.5 µg/mL
- neutralization IC80 [11]: 19.5 µg/mL
- neutralization MPI [11]: 93
- neutralization IC50 [27]: 0.014 µg/mL
- neutralization IC80 [27]: 0.061 µg/mL
- neutralization MPI [27]: 100
- neutralization IC50 [13]: 0.107 µg/mL
- neutralization IC80 [13]: 0.365 µg/mL
- neutralization MPI [13]: 100
- neutralization IC50 [14]: 0.025 µg/mL
- neutralization IC80 [14]: 0.111 µg/mL
- neutralization MPI [14]: 100
- neutralization IC50 [15]: 0.663 µg/mL
- neutralization IC80 [15]: 2.41 µg/mL
- neutralization MPI [15]: 100
- neutralization IC50 [28]: 0.092 µg/mL
- neutralization IC80 [28]: 0.313 µg/mL
- neutralization MPI [28]: 100
- neutralization IC50 [16]: 0.164 µg/mL
- neutralization IC80 [16]: 0.403 µg/mL
- neutralization MPI [16]: 100
- neutralization IC50 [17]: 0.158 µg/mL
- neutralization IC80 [17]: 0.619 µg/mL
- neutralization MPI [17]: 100
- neutralization IC50 [29]: 22.3 µg/mL
- neutralization IC80 [29]: > 50 µg/mL
- neutralization MPI [29]: 75
- neutralization IC50 [18]: 0.104 µg/mL
- neutralization IC80 [18]: 0.351 µg/mL
- neutralization MPI [18]: 100
- neutralization IC50 [19]: 0.084 µg/mL
- neutralization IC80 [19]: 0.248 µg/mL
- neutralization MPI [19]: 100
- neutralization IC50 [20]: 0.2 µg/mL
- neutralization IC80 [20]: 0.96 µg/mL
- neutralization MPI [20]: 100
- neutralization IC50 [21]: 0.109 µg/mL
- neutralization IC80 [21]: 0.347 µg/mL
- neutralization MPI [21]: 100
- neutralization IC50 [22]: 0.213 µg/mL
- neutralization IC80 [22]: 0.953 µg/mL
- neutralization MPI [22]: 100
- neutralization IC50 [23]: 0.039 µg/mL
- neutralization IC80 [23]: 0.134 µg/mL
- neutralization MPI [23]: 100
